Test results from patent US20180049457A1, “ENZYMATIC SYNTHESIS OF SOLUBLE GLUCAN FIBER” (E I DU PONT DE NEMOURS AND COMPANY, priority 2014, published 2018).
Numbering of substitutions follows the chain as printed.

Test: GTF activity of strains (PAHBAH assay)
Format: biochemical
Details: enzyme expressed in B. subtilis host
Procedure: GTF activity of the strains was analyzed by PAHBAH assay in three separate experiments. Due to minor variations between the expeirments, Table 2 lists the activity of the truncated enzymes in the B. subtilis host along with the experiment in which the activity was measured. Most of the T1, T2, and T6 truncations decreased the activity of the enzymes, whereas the T4 and T5 C-terminal truncations retained similar activity relative to the respective N terminal-only truncations (NT). […] To identify specific amino acid residues within the catalytic domain that may be involved in producing the soluble α-glucan fiber, we analyzed the crystal structures (PDB Identifiers: 3AIB, 3AIC, and 3HZ3) of the catalytic domains of three glucosyltransferases to identify residues within 8 Angstroms of the bound ligand. 57 residues met that criterion. A motif was generated based on the corresponding 57 amino acids in GTF0459 and each of the identified homologs. The motif was then used to generate a consensus sequence to capture the variability in the catalytic domains of GTF0459 and the identified homologs. The consensus sequence is provided as SEQ ID NO: 153.

B1: GTF4491T5: T5 C-terminal truncation of GTF4491, SEQ ID NO: 122, strain SG1321 (protein)
chain: INGKQYYVNSDGSVRKNFVFEQDGKSYYFDAETGALATKSQDEFSTEPIKATVDFSSGNQLYKNDDKSLDQLDTFITADAWYRPKSILKDGKTWTASTEADKRPLLMVWWPDKSTQVNYLNYMQNQGLGAGSFSTNSSQESLDQAAKAVQTKIEERIAREGNTNWLRTSIDQFIKTQPGWNSSTENSSYDHLQGGQLLFNNSKGDTGNRTSHANSDYRLLNRTPTNQTGTRKYFKDNSIGGLEFLLANDIDNSNPAVQAEQLNWLHFMMNIGSIMANDPTANFDGLRVDALDNVDADLLQIASDYFKAAYGVDKSEANAIKHLSYLEAWSANDPYYNKDTKGAQLPIDNALRNALTNLLMRDKNTRMQLGDMTAFINSSLNPRGANDKNGERMANYIFTRAHDTEAQTIIQRIIRDRINPNLFGYNFTRDEIKKAFEIYNEDIDKAHKTYASYNLPSVYALMLTNKDSVTRVYYGDLYREDGHYMAKKTPYFDAIDTLLRARIKYVAGGQDMEVKKVGNDGLLTSVRYGKGANNRTDLGTSETRTQGMGVIMTNNYDFRLGSNETVTMNMGRAHRNQLYRPLLLTTKDGIATYLNDSDVPKNLLKRTDWNGNLTFNANDVFGVENVQVSGYLGVWVPYGAKANQDARTQPSNRANSDGQVYKSSAALDSQVMYEAFSNFQAFADDQPELYMNRVLAKNTDLLKAWGITSVGLPPQYVSSKDGTFLDSIIDNGYAFDDRYDMALSQNNKYGSLEDLLNVLRALHKDGIQAIADWVPDQIYNLPGKEVVNATRVNGYGYHQQGYQIVDQAYVANTRTDGTDYQGKYGGAFLDELKAKYPSIFNRVQISNGKQLPTNEKITKWSAKYFNGTNILGRGINFVLRDDKTNQYFNTSANSQLLPTPLRDTGAITSTQVFQRRGQDVYFLRDNQTVKNEFVQDGNGNWYYFGGDGKMTKGAQNINSKDYYFFDNGVQLRNALRRASNGYTYYYGLDGAMVKNAFVDFDDKHKQ
modifications: T5 C-terminal truncation of GTF4491
- GTF activity of strains: Acitivity (Experiment Number 2): 50.6 U/mL

B2: GTF3808T5: T5 C-terminal truncation of GTF3808, SEQ ID NO: 124, strain SG1330 (protein)
chain: B1 chain with A148M, I728T, Y797N, Q800V, V805I, F877Y, T928A, S959N, V969I
modifications: T5 C-terminal truncation of GTF3808
- GTF activity of strains: Acitivity (Experiment Number 3): 36.2 U/mL

B3: GTF4491T4: T4 C-terminal truncation of GTF4491, SEQ ID NO: 132, strain SG1320 (protein)
chain: INGKQYYVNSDGSVRKNFVFEQDGKSYYFDAETGALATKSQDEFSTEPIKATVDFSSGNQLYKNDDKSLDQLDTFITADAWYRPKSILKDGKTWTASTEADKRPLLMVWWPDKSTQVNYLNYMQNQGLGAGSFSTNSSQESLDQAAKAVQTKIEERIAREGNTNWLRTSIDQFIKTQPGWNSSTENSSYDHLQGGQLLFNNSKGDTGNRTSHANSDYRLLNRTPTNQTGTRKYFKDNSIGGLEFLLANDIDNSNPAVQAEQLNWLHFMMNIGSIMANDPTANFDGLRVDALDNVDADLLQIASDYFKAAYGVDKSEANAIKHLSYLEAWSANDPYYNKDTKGAQLPIDNALRNALTNLLMRDKNTRMQLGDMTAFINSSLNPRGANDKNGERMANYIFTRAHDTEAQTIIQRIIRDRINPNLFGYNFTRDEIKKAFEIYNEDIDKAHKTYASYNLPSVYALMLTNKDSVTRVYYGDLYREDGHYMAKKTPYFDAIDTLLRARIKYVAGGQDMEVKKVGNDGLLTSVRYGKGANNRTDLGTSETRTQGMGVIMTNNYDFRLGSNETVTMNMGRAHRNQLYRPLLLTTKDGIATYLNDSDVPKNLLKRTDWNGNLTFNANDVFGVENVQVSGYLGVWVPYGAKANQDARTQPSNRANSDGQVYKSSAALDSQVMYEAFSNFQAFADDQPELYMNRVLAKNTDLLKAWGITSVGLPPQYVSSKDGTFLDSIIDNGYAFDDRYDMALSQNNKYGSLEDLLNVLRALHKDGIQAIADWVPDQIYNLPGKEVVNATRVNGYGYHQQGYQIVDQAYVANTRTDGTDYQGKYGGAFLDELKAKYPSIFNRVQISNGKQLPTNEKITKWSAKYFNGTNILGRGINFVLRDDKTNQYFNTSANSQLLPTPLRDTGAITSTQVFQRRGQDVYFLRDNQTVKNEFVQDGNGNWYYFGGDGKMTKGAQNINSKDYYFFDNGVQLRNALRRASNGYTYYYGLDGAMVKNAFVDFDDKHK
modifications: T4 C-terminal truncation of GTF4491
- GTF activity of strains: Acitivity (Experiment Number 2): 45.3 U/mL

B4: GTF4491NT: N terminal-only truncated GTF4491 from Streptococcus salivarius JIM8777, SEQ ID NO: 106, strain SG1292 (protein)
chain: INGKQYYVNSDGSVRKNFVFEQDGKSYYFDAETGALATKSQDEFSTEPIKATVDFSSGNQLYKNDDKSLDQLDTFITADAWYRPKSILKDGKTWTASTEADKRPLLMVWWPDKSTQVNYLNYMQNQGLGAGSFSTNSSQESLDQAAKAVQTKIEERIAREGNTNWLRTSIDQFIKTQPGWNSSTENSSYDHLQGGQLLFNNSKGDTGNRTSHANSDYRLLNRTPTNQTGTRKYFKDNSIGGLEFLLANDIDNSNPAVQAEQLNWLHFMMNIGSIMANDPTANFDGLRVDALDNVDADLLQIASDYFKAAYGVDKSEANAIKHLSYLEAWSANDPYYNKDTKGAQLPIDNALRNALTNLLMRDKNTRMQLGDMTAFINSSLNPRGANDKNGERMANYIFTRAHDTEAQTIIQRIIRDRINPNLFGYNFTRDEIKKAFEIYNEDIDKAHKTYASYNLPSVYALMLTNKDSVTRVYYGDLYREDGHYMAKKTPYFDAIDTLLRARIKYVAGGQDMEVKKVGNDGLLTSVRYGKGANNRTDLGTSETRTQGMGVIMTNNYDFRLGSNETVTMNMGRAHRNQLYRPLLLTTKDGIATYLNDSDVPKNLLKRTDWNGNLTFNANDVFGVENVQVSGYLGVWVPYGAKANQDARTQPSNRANSDGQVYKSSAALDSQVMYEAFSNFQAFADDQPELYMNRVLAKNTDLLKAWGITSVGLPPQYVSSKDGTFLDSIIDNGYAFDDRYDMALSQNNKYGSLEDLLNVLRALHKDGIQAIADWVPDQIYNLPGKEVVNATRVNGYGYHQQGYQIVDQAYVANTRTDGTDYQGKYGGAFLDELKAKYPSIFNRVQISNGKQLPTNEKITKWSAKYFNGTNILGRGINFVLRDDKTNQYFNTSANSQLLPTPLRDTGAITSTQVFQRRGQDVYFLRDNQTVKNEFVQDGNGNWYYFGGDGKMTKGAQNINSKDYYFFDNGVQLRNALRRASNGYTYYYGLDGAMVKNAFVDFDDKHKQVRAFTTQGTMVVGNLHWSGHHFYFDRETGIQAKDRVVRTDDGKLHYYVAETGDMGRNVFATDSSTGKRYYFDADGNTVTGSRVIDGKTYYFNQDGSVGTAYSNRADSIIFENGKARYITPAGEIGRSIFVYNPATKAWNYFDKEGNRVTGRQYIDGHLYYFKEDGSQAKGEIIEENGIKYYYEPESGILASGRYLQVGDDQWMYFKQDGSLAIGQVRADHGYLKYFDKNGIQVKGKTVVEDGKTYYYDAHSGALVTSSFAEIAPNQWSYFNTDGQALKGKWTINGKEYYFDENGIQYKGKAIKVGSRYKYYDENDGQPVTNRFAQIEPNVWAYFGADCYAVTGEQVINGQHLYFDENGRQVKGAYVTVNGQRRYYDANTGEYVPGR
modifications: Streptococcus salivarius JIM8777
- GTF activity of strains: Acitivity (Experiment Number 1): 42.3 U/mL
- GTF activity of strains: Acitivity (Experiment Number 2): 53.1 U/mL
